The source of these data is US20160200782A1 (MOERAE MATRIX, published 2016).

Among the targets are JAK2(h) (human, UniProt O60674 808-1132, limits assumed); STK33(h) (human, UniProt Q9BYT3 1-514, limits assumed); MST3(h) (human, UniProt Q9Y6E0 1-443, limits assumed).
What all share (test): cell-based or functional assay
A further assay has as its target T1, Itk(h) (human, UniProt Q08881 1-620, limits assumed).
T1 sequence (looked up): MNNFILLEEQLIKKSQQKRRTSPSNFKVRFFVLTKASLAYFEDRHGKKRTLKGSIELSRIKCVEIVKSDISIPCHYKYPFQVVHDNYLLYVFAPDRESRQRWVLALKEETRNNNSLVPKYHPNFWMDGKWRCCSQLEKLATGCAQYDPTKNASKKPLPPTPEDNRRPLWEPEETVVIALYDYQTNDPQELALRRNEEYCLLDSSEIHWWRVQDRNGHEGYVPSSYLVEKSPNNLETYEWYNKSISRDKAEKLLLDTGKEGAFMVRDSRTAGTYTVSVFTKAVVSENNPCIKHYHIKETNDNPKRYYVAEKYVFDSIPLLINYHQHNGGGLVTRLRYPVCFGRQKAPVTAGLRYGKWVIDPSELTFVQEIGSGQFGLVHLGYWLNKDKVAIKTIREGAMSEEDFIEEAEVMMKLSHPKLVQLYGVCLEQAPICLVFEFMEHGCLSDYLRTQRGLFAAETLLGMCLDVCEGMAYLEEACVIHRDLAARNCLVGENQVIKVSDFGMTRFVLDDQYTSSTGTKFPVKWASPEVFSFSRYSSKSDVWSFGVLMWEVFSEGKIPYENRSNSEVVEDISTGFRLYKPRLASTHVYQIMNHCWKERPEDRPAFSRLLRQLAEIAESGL

For the next assay, the target named is T2, ULK2(h) (human, UniProt Q8IYT8 1-478, limits assumed).
T2 sequence (looked up): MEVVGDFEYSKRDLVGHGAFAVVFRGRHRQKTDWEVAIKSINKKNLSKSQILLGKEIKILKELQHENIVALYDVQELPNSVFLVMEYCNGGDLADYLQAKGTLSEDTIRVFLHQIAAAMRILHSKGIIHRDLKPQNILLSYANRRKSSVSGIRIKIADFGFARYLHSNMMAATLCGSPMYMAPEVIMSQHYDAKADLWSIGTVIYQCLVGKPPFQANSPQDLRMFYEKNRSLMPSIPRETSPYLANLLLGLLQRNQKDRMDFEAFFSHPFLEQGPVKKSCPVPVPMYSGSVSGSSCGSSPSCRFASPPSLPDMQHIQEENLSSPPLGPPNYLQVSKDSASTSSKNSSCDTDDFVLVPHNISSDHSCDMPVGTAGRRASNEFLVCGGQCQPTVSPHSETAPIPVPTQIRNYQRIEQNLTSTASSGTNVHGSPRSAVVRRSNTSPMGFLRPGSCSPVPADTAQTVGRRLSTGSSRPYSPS

A further assay has as its target T3, Fms(Y969C)(h) (human, UniProt P07333 538-972, limits assumed).
T3 sequence (looked up): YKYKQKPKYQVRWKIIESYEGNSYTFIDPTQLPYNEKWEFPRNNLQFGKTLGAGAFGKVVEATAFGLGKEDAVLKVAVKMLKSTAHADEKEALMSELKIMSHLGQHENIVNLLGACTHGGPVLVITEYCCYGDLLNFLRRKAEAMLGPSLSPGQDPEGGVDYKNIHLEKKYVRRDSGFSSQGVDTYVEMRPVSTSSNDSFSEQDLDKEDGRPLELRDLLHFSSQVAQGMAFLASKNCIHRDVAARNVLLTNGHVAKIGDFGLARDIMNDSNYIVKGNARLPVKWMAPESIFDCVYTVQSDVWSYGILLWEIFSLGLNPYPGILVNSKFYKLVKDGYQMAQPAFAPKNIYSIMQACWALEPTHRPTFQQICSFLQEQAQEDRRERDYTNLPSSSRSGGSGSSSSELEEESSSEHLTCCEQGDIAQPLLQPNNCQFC

The target in another assay is T4, SAPK3(h) (human, UniProt P53778 1-367).
T4 sequence (looked up): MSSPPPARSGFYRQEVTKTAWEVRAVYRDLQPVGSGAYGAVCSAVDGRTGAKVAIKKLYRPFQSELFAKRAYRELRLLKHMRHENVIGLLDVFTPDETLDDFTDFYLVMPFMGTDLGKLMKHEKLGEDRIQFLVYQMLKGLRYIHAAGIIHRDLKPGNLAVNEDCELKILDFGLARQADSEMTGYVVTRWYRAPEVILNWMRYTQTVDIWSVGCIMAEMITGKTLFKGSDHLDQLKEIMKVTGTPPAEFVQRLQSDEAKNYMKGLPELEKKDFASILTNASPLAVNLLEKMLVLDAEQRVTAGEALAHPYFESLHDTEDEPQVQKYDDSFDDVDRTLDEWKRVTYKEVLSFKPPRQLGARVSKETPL

A further assay deals with T5, CaMKIV(h) (human, UniProt Q16566 1-473, limits assumed).
T5 sequence (looked up): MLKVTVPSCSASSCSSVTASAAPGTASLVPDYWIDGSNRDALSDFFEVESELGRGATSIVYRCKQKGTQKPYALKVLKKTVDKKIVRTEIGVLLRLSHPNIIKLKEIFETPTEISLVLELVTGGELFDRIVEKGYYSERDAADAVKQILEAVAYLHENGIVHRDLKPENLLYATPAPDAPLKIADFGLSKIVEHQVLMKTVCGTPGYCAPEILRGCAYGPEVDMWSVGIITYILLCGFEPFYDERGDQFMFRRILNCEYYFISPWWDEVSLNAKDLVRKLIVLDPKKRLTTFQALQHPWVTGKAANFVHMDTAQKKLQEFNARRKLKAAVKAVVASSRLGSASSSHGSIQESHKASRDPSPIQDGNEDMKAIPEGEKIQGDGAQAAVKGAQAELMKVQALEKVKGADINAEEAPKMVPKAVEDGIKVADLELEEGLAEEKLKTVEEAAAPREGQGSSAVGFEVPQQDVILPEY
Further: test concentration or dose not given here.

MST3(h), sequence (Q9Y6E0 whole entry): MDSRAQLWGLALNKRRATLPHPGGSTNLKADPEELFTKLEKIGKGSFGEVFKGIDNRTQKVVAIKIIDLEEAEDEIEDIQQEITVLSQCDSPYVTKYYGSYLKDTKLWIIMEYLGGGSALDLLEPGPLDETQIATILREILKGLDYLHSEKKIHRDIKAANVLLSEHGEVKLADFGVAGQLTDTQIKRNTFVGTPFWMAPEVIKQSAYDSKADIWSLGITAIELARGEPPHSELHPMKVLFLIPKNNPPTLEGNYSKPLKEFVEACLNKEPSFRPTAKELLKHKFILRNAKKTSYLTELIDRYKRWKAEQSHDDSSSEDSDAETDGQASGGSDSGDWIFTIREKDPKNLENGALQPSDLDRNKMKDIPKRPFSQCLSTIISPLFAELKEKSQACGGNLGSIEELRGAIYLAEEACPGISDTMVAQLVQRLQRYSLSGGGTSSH
STK33(h), sequence (Q9BYT3 whole entry): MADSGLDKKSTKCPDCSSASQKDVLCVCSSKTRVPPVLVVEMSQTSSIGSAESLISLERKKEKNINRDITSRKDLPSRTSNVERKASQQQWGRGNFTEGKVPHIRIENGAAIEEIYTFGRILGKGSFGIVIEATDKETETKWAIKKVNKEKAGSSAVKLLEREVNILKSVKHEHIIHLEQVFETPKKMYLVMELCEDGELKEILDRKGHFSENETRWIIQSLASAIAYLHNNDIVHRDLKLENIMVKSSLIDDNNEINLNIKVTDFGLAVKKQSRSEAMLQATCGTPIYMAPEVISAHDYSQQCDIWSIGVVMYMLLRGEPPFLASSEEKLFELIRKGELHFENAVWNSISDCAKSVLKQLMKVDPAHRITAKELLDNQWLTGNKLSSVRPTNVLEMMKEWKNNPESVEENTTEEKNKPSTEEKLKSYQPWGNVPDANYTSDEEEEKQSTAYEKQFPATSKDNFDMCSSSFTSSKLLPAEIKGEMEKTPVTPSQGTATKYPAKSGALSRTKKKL
JAK2(h), sequence (O60674 808-1132 limits assumed): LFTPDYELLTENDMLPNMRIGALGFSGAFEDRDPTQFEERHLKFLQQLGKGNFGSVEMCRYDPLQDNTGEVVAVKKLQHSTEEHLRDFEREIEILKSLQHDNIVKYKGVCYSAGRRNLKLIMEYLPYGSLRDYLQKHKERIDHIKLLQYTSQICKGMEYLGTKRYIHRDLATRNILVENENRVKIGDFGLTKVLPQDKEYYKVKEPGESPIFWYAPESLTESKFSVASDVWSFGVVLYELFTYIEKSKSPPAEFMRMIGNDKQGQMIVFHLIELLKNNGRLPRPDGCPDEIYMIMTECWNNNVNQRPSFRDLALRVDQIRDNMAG

B1: MMI-0300 (peptide)
peptide: FAKLAARLYRKALARQLGVAA
For B1, the “% activity” value in the assay with Itk(h) was 77%; with ULK2(h) it was 122%; with Fms(Y969C)(h) it was 72%; in the assay with JAK2(h) it was 133%; with STK33(h) it was 45%; with SAPK3(h), 84%. Moreover, the “% activity” value with CaMKIV(h) came to 17%; in the assay with MST3(h), 45%.

B2: MMI-0400 (peptide)
peptide: KAFAKLAARLYRKALARQLGVAA
As to B2, the “% activity” value came out at 63% with Itk(h); 131% with ULK2(h); 91% with Fms(Y969C)(h); 119% with JAK2(h); 52% in the assay with STK33(h); 79% with SAPK3(h). The “% activity” value was found to be 18% with CaMKIV(h) and 36% in the assay with MST3(h).
